Data from patent US20180155451A1 (published 2018).

T1: FcgRIIa R type extracellular domain, C-terminal His tag (human, UniProt P12318 34-217)
T1 construct: extracellular domain; also called FcγRIIa R; 2aR; not shown: His tag attached to the C terminus
T1 sequence (looked up): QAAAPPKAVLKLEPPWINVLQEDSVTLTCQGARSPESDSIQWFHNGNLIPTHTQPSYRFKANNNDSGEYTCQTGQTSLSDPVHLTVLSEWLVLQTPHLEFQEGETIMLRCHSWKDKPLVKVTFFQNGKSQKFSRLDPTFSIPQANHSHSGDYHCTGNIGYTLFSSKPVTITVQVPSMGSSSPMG

T2: FcgRIIa H type extracellular domain, C-terminal His tag (human, UniProt P12318 34-217)
T2 construct: extracellular domain; also called FcγRIIa H; 2aH; not shown: His tag attached to the C terminus
T2 sequence (looked up): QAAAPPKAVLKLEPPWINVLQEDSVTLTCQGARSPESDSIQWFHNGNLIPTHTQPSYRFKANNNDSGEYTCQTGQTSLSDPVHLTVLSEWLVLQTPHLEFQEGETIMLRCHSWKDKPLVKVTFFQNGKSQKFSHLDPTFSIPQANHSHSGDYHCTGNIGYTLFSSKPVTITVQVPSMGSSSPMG

T3: FcgRIIb extracellular domain, C-terminal His tag (human, UniProt P31994 43-217)
T3 construct: extracellular domain; also called FcγRIIb; 2b; not shown: His tag attached to the C terminus
T3 sequence (looked up): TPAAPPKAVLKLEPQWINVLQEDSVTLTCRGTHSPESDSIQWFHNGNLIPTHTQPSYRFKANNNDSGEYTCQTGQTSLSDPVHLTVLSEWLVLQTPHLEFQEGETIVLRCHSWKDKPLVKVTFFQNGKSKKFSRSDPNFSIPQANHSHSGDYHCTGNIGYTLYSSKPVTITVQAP

T4: FcgRIIa R (human, UniProt P12318 34-217)
T4 construct: extracellular domain; also called FcγRIIa R; FcγRIIa type R; not shown: His tag attached to the C terminus
T4 sequence (looked up): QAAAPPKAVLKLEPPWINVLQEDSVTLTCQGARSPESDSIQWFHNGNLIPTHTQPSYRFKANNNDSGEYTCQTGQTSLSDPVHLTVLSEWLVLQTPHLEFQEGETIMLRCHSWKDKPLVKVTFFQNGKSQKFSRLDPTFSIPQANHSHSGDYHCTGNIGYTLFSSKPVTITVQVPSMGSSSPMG

T5: FcgRIIa H (human, UniProt P12318 34-217)
T5 construct: extracellular domain; also called FcγRIIa H; FcγRIIa type H; not shown: His tag attached to the C terminus
T5 sequence (looked up): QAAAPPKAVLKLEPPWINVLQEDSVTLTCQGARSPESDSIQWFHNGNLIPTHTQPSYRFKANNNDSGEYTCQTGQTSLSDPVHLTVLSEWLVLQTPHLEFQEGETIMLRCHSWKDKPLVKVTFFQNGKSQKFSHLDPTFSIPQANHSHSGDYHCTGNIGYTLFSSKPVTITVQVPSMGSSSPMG

T6: FcgRIIb (human, UniProt P31994 43-217)
T6 construct: extracellular domain; Expressed in FreeStyle293 cells and purified; used as analyte in Biacore; also called FcγRIIb; CD32B; not shown: His tag attached to the C terminus
T6 sequence (looked up): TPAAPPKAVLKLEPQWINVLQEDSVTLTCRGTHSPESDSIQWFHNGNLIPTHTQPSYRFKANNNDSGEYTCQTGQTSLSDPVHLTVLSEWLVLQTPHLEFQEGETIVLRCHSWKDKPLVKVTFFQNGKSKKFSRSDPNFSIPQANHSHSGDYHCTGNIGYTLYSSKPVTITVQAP


Key:
[1] = molecular target: T1, FcgRIIa R type extracellular domain, …; assay: SPR (Biacore), antibody captured on chip, FcgR extracellular domain as analyte, 25 C, 1:1 Langmuir fit; experiment #3
Protocol: (§1) Antibodies of interest were analyzed for the interaction to FcgR according to the method described in Reference Example 8.
(§2) Analysis of interaction between obj ective antibody and the FcγR was carried out using Biacore T100 (GE Healthcare), Biacore T200, Biacore A100, and Biacore 4000. HBS-EP+ (GE Healthcare) was used as the running buffer, and the measurement temperature was set to 25° C. Chips produced by immobilizing the antigen peptide by the amine coupling method to a Series S sensor Chip CM5 (GE Healthcare), chips produced by allowing preliminarily biotinylated antigen peptides to interact with and immobilize onto a Series S Sensor Chip SA (certified) (GE Healthcare), chips produced by immobilizing Protein L (ACTIGEN, BioVision) to Series S Sencor Chip CM5 (GE Healthcare), or chips produced by immobilizing Protein A/G (Thermo Scientific) to Series S Sencor Chip CM5 (GE Healthcare) were used. Antibodies of interest were captured onto these chips, and allowed to interact to each FcγR diluted with running buffer. To regenerate and repeatedly use the chip, the antibodies captured onto the chip were washed off by reacting 10 mM glycine-HCl, pH 1.5.

[2] = molecular target: T2, FcgRIIa H type extracellular domain, …; assay: as above
Protocol: as §1, §2

[3] = molecular target: T3, FcgRIIb extracellular domain, …; assay: as above
Protocol: as §1, §2

[4] = molecular target: T7, FcgRIIIa F type extracellular domain, C-terminal His tag (human, UniProt P08637 17-208); assay: as above
T7 construct: extracellular domain; also called FcγRIIIa F; 3aF; not shown: His tag attached to the C terminus
Protocol: as §1, §2

[5] = molecular target: T8, FcgRIIIa V type extracellular domain, C-terminal His tag (human, UniProt P08637 17-208); assay: as above
T8 construct: extracellular domain; also called FcγRIIIa V; 3aV; not shown: His tag attached to the C terminus
Protocol: as §1, §2

[6] = molecular target: T9, FcgRI extracellular domain, C-terminal His tag (human, UniProt P12314 16-292); assay: as above
T9 construct: extracellular domain; also called FcγRIa; FcgRIa; not shown: His tag attached to the C terminus
Protocol: as §1, §2

[7] = molecular target: T10, FcgRIa (human, UniProt P12314 16-292); assay: SPR (Biacore), antibody captured on chip, FcgR extracellular domain as analyte
T10 construct: extracellular domain; Expressed in FreeStyle293 cells and purified; used as analyte in Biacore; also called FcγRIa; FcγRI; not shown: His tag attached to the C terminus
Protocol: (§3) H240-Kn113 (SEQ ID NO: 92) resulting from introduction of Y234E and Y235N into H240-Kn072, H240-Kn115 (SEQ ID NO: 93) resulting from introduction of S239M into H240-Kn072, and H240-Kn125 (SEQ ID NO: 94) resulting from introduction of Y235Q and S239M into H240-Kn072 were prepared according to the method described in Reference Example 1.
as §2

[8] = molecular target: T4, FcgRIIa R; assay: as above
Protocol: as §3, §2

[9] = molecular target: T5, FcgRIIa H; assay: as above
Protocol: as §3, §2

[10] = molecular target: T6, FcgRIIb; assay: as above
Protocol: as §3, §2

[11] = molecular target: T11, FcgRIIIa F (human, UniProt P08637 17-208); assay: as above
T11 construct: extracellular domain; also called FcγRIIIa F; not shown: His tag attached to the C terminus
Protocol: as §3, §2

[12] = molecular target: T12, FcgRIIIa V (human, UniProt P08637 17-208); assay: as above
T12 construct: extracellular domain; also called FcγRIIIa V; not shown: His tag attached to the C terminus
Protocol: as §3, §2

T12 sequence (P08637 17-208 F176V limits assumed): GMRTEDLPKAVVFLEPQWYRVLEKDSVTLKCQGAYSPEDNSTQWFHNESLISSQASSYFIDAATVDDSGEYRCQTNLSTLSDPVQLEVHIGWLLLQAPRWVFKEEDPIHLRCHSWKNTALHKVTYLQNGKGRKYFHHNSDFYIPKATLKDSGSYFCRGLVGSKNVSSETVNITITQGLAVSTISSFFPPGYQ
T8 sequence (P08637 17-208 F176V limits assumed): as above
T7 sequence (P08637 17-208): as the sequence (P08637 17-208 F176V limits assumed) above, with V160F counted along it
T11 sequence (P08637 17-208): as the sequence (P08637 17-208 F176V limits assumed) above, with V160F counted along it
T9 sequence (P12314 16-292): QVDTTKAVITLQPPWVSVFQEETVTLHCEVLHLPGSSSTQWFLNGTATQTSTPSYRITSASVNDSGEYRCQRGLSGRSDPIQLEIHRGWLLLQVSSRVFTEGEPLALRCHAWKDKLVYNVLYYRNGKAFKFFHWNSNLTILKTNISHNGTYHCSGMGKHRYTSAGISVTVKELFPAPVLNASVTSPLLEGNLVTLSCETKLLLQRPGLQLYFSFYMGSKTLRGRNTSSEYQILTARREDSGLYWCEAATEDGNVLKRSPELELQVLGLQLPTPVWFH
T10 sequence (P12314 16-292): as above

Kd [1]	Kd [2]	Kd [3]	Kd [4]	Kd [5]	Kd [6]	Kd [7]	Kd [8]	Kd [9]	Kd [10]	Kd [11]	Kd [12]	Binder
280 nM	92 nM	1300 nM	4.4 nM	1.7 nM	0.069 nM	–	–	–	–	–	–	H240-FA021/H240-FB059/L73-k0 (antibody, human IgG1, kappa, Heterodimerized anti-epiregulin IgG1 antibody) heavy 1: QDQLVQSGAEVKKPGASVKVSCKASGFNIKDTYIQWVRQAPGQGLEWMGRIDPLRKQTKYREKFEGRVTITADTSTNTAYMELSSLRSEDTAVYYCVRSGREFDYWGQGTLVTVSSASTKGPSVFPLAPSSKSTSGGTAALGCLVKDYFPEPVTVSWNSGALTSGVHTFPAVLQSSGLYSLSSVVTVPSSSLGTKTYTCNVNHKPSNTKVDKKVEPKSCDKTHTCPPCPAPEYYWGPSVFLFPPKPKDTLMISRTPEVTCVVVDVSDEEPEVKFNWYVDGVEVHNAKTKPREEQYNATYRVVSVLTVLHQDWLNGKEYKCKVSNKALPAPIEKTISKAKGQPREPQVYTLPPSRKEKTKNQVSLTCLVKGFYPSDIAVEWESNGQPENNYKTTPPKLDSDGSFFLYSKLTVDKSRWQQGNVFSCSVMHEALHNRYTQKSLSLSP heavy 2: QDQLVQSGAEVKKPGASVKVSCKASGFNIKDTYIQWVRQAPGQGLEWMGRIDPLRKQTKYREKFEGRVTITADTSTNTAYMELSSLRSEDTAVYYCVRSGREFDYWGQGTLVTVSSASTKGPSVFPLAPSSKSTSGETAALGCLVEDYFPEPVTVSWNSGALTSGVHTFPAVLQSSGLYSLSSVVTVPSSSLGTQTYICNVNHKPSNTKVDKKVEPKSCDKTHTCPPCPAPELLGGPSVFLFPPKPKDTLMISRTPEVTCVVVDVSHEEPEVQFNWYVDGVEVHNAETKPREEQYNSTYRVVSVLTVLHQDWLNGKEYKCKVSNDALPMPIEETISKAKGQPREPQVYTLPPSREEMTKNQVSLTCLVKGFYPSDIAVEWESNGQPENNYKTTPPVLDSDGSFFLYSKLTVDKSRWQQGNVFSCSVMHEALHNHYTQESLSLSP light: DIQMTQSPSSLSASVGDRVTITCRASQDIHKYIAWYQQKPGQAPRLLIQYTSTLQPGVPSRFSGSGSGTDYTFTISSLQPEDIATYYCLQYEQLRTFGGGTKVEIKRTVAAPSVFIFPPSDEQLKSGTASVVCLLNNFYPREAKVQWKVDNALQSGNSQESVTEQDSKDSTYSLSSTLTLSKADYEKHKVYACEVTHQGLSSPVTKSFNRGEC
–	–	–	–	–	–	0.24 nM	380 nM	190 nM	4200 nM	1.2 nM	0.37 nM	H240-Kn125/H240-Hl076/L73-k0 (antibody, human IgG1, kappa, Heterodimerized anti-EREG IgG1: Kn125 is H240-Kn072 with Y235Q and S239M) heavy 1: QDQLVQSGAEVKKPGASVKVSCKASGFNIKDTYIQWVRQAPGQGLEWMGRIDPLRKQTKYREKFEGRVTITADTSTNTAYMELSSLRSEDTAVYYCVRSGREFDYWGQGTLVTVSSASTKGPSVFPLAPSSKSTSGGTAALGCLVKDYFPEPVTVSWNSGALTSGVHTFPAVLQSSGLYSLSSVVTVPSSSLGTQTYICNVNHKPSNTKVDKKVEPKSCDKTHTCPPCPAPEYQWGPMVFLFPPKPKDTLMISRTPEVTCVVVDVSDEEPEVKFNWYVDGVEVHNAKTKPREEQYNATYRVVSVLTVLHQDWLNGKEYKCKVSNKALPAPIEKTISKAKGQPREPQVCTLPPSRDELTKNQVSLWCLVKGFYPSDIAVEWESNGQPENNYKTTPPVLDSDGSFFLYSKLTVDKSRWQQGNVFSCSVMHEALHNHYTQKSLSLSP heavy 2: QDQLVQSGAEVKKPGASVKVSCKASGFNIKDTYIQWVRQAPGQGLEWMGRIDPLRKQTKYREKFEGRVTITADTSTNTAYMELSSLRSEDTAVYYCVRSGREFDYWGQGTLVTVSSASTKGPSVFPLAPSSKSTSGGTAALGCLVKDYFPEPVTVSWNSGALTSGVHTFPAVLQSSGLYSLSSVVTVPSSSLGTQTYICNVNHKPSNTKVDKKVEPKSCDKTHTCPPCPAPELLGGPSVFLFPPKPKDTLMISRTPEVTCVVVDVSHEEPEVKFNWYVDGVEVHNAKTKPREEQYNSTYRVVSVLTVLHQDWLNGKEYKCKVSNDALPMPIEETISKAKGQPREPQVYTLPPSRCELTKNQVSLSCAVKGFYPSDIAVEWESNGQPENNYKTTPPVLDSDGSFFLVSKLTVDKSRWQQGNVFSCSVMHEALHNHYTQKSLSLSP light: DIQMTQSPSSLSASVGDRVTITCRASQDIHKYIAWYQQKPGQAPRLLIQYTSTLQPGVPSRFSGSGSGTDYTFTISSLQPEDIATYYCLQYEQLRTFGGGTKVEIKRTVAAPSVFIFPPSDEQLKSGTASVVCLLNNFYPREAKVQWKVDNALQSGNSQESVTEQDSKDSTYSLSSTLTLSKADYEKHKVYACEVTHQGLSSPVTKSFNRGEC
